{"source": "the nanobody polyreactivity screen of Harvey et al. (2022)"}
{"experiment": "yeast display, Sf9 membrane polyspecificity reagent, FACS + sequencing; frameworks hold sequencing errors", "how_it_was_run": "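Genes from sorted yeast were amplified by colony PCR, read by MiSeq 2 × 250 sequencing and filtered on CDR length. These cells carried a synthetic nanobody library in Saccharomyces cerevisiae BJ5465 and were sorted by FACS into low and high (top ~1%) gates on anti-HA and streptavidin fluorescence. Polyreactivity is labelled according to the gate of origin.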"}
{"sequence": "QVQLVESGGGLVQAGGSLRLSCAASGLIFRHYAMGWYRQAPGKERELVAAIDYSGGSTYYADSVKGRFTISRDNAKNTVYLQMNSQKPEDTAVYYCAADYFWMYYSEYGYWGQGTQVTVSS", "polyreactivity (PSR sort gate)": "low polyreactivity"}
{"sequence": "QVQLVESGGGLVQAGGSLRLSCAASGLIFRHYVMGWYRQAPGKETELVAAITSRGGTTYYADSVKGRFTISRDNAKNTVYIQMNSLKPEDTAVYYCNAVDIYPTRYEYDYWGQGTQVTVSS", "polyreactivity (PSR sort gate)": "high polyreactivity"}
{"sequence": "QVQLVESGGGLVQAGGSLRLSCAASGLIFRLYAMGWYRQAPGKERELVAALSISGGSTYYADSVKGRFTLSRDNAKNTVYLQMNSLKPEDTAVYYCAARYYRGGPYYKYDYWGQGTQVTVSS", "polyreactivity (PSR sort gate)": "high polyreactivity"}
{"sequence": "QVQLVESGGGLVQAGGSLRLSCAASGLIFRPYTMGWYRQAPGKERELVAAINFSGGNTYYADSVKGRFTISRDNAKNTVYLQMNSLKPEDTAVYYCATKSFYGYYYWPYGYWGQGTQVTVSS", "polyreactivity (PSR sort gate)": "low polyreactivity"}
{"sequence": "QVQLVESGGGLVQAGGSLRLSCAASGLIFRRYAMGWYIQAPGKEREFVAAIRYTGGGTYYADSVKGRFTISRDNAKNTVYLQMNRLKPEDTAVYYCNTVEYRWGYISKVPKYDYWGQGTQVTLSS", "polyreactivity (PSR sort gate)": "high polyreactivity"}
{"sequence": "QVQLVESGGGLVQAGGSLRLSCAASGLIFRRYAMGWYRQAPGKERELVAAITIGGSTSYADSVKGRFTISRDNAKNTVYLQMNSLKPEDTAVYYCAARWGALWYRPYDYWGQGTQVTVSS", "polyreactivity (PSR sort gate)": "high polyreactivity"}
{"sequence": "QVQLVESGGGLVQAGGSLRLSCAASGLIFRTYTMGWYRQAPGKERELVATITRRCGTTYYADSVKGRFTISRDNAKNTVYLQMNSLKPEDTAVYYFAKSPYYTWKYDYWGQGTQVTVSS", "polyreactivity (PSR sort gate)": "high polyreactivity"}
{"sequence": "QVQLVESGGGLVQAGGSLRLSCAASGLIFRWYAMGWYRQAPGKERELDAAISTSGGRTYYADSVKGRFTISRDNAKNTVYLQMNSLKPEDTAVYYCNAQHASWYTAYSVSFDYWGQGTQVTVSS", "polyreactivity (PSR sort gate)": "low polyreactivity"}
{"sequence": "QVQLVESGGGLVQAGGSLRLSCAASGLIFRWYAMGWYRQAPGKEREMVAAITSGGTTNYADSVTGRFTISRDNAKNTVYFQMNSLKPEHSAVYSCNAIVLSYSRYDYWGQGTQVTVSS", "polyreactivity (PSR sort gate)": "high polyreactivity"}
{"sequence": "QVQLVESGGGLVQAGGSLRLSCAASGLIFRYNAMGWSRQAPGKERELVAAISRSGGTTYYADSVKGRFTISRDNAKNTVYLQMNSLKPEDTAVYYCATRISQSYYNYGYWGQGTQVTVSS", "polyreactivity (PSR sort gate)": "high polyreactivity"}
{"sequence": "QVQLVESGGGLVQAGGSLRLSCAASGLIFRYYAKGWYRQAPGKERELFAAISLRGGSTYYADSVKGRFTISRDNAKNNVYLQMNSLKPEDTAVYYCAAQWASFSVANLYGYWGQGTQVTVSS", "polyreactivity (PSR sort gate)": "high polyreactivity"}
{"sequence": "QVQLVESGGGLVQAGGSLRLSCAASGLIFRYYAMGWYRQAPGKERELVAAITWRGGRTYYADSVKGRFTISRDNAKNTVYLQMNSLKPEDTAVYYCNKDGPYQVITYDYWGQGTQVTVSS", "polyreactivity (PSR sort gate)": "high polyreactivity"}
{"sequence": "QVQLVESGGGLVQAGGSLRLSCAASGLIFRYYSMAWYRQAPGKERELVAAISKSGDRTYYADSVKGRFTISRDNAKNTVYLEMNSLKPEATGVYYCAADSYPSPNFEDNYWGQGTQVTVSS", "polyreactivity (PSR sort gate)": "low polyreactivity"}
{"sequence": "QVQLVESGGGLVQAGGSLRLSCAASGLIFSAYDMGWYRQAPGKERELVASITSGGSTYYADSVKGRFTISRDNAKNTVYLQMNSLKPEDTAVYYCNADGGWYQYRWRYIEGEYWGQGTQVTLSS", "polyreactivity (PSR sort gate)": "low polyreactivity"}
{"sequence": "QVQLVESGGGLVQAGGSLRLSCAASGLIFSFYALGWYRQAPGKERELVAAINRSGGSTYYADSVKGRFTISRDNSKNTVYLQMNSLKPEDTAVYYCAARNAFGTYYYWGQGTQVTVSS", "polyreactivity (PSR sort gate)": "high polyreactivity"}
{"sequence": "QVQLVESGGGLVQAGGSLRLSCAASGLIFSFYDMGWYRQAPGKEREFVAAISGSGGSTYYADSVKGRFTISRDNEKNTVYLHMNILKPEDTAVYYCAAEYFTFYWKLDYWGQGTQVTVSS", "polyreactivity (PSR sort gate)": "high polyreactivity"}
{"sequence": "QVQLVESGGGLVQAGGSLRLSCAASGLIFSGYAMGWYRQAPGKERELVAAISRGGGRTSYADSVKGRFTISRDNAKNTVYLQMNSLKPEDTAVYYCAKDPRYLRYEHWGQGSQVTVSS", "polyreactivity (PSR sort gate)": "high polyreactivity"}
{"sequence": "QVQLVESGGGLVQAGGSLRLSCAASGLIFSGYDMGWYRQAPGKERELVAAITWSGGRTYADSVKGRFTISRDNAKNTVYLQMNSLKPEDTAVYYCNADAYIDYWPYTWDYDYWGQGTQVTVSS", "polyreactivity (PSR sort gate)": "high polyreactivity"}
{"sequence": "QVQLVESGGGLVQAGGSLRLSCAASGLIFSNYAMGWYRQAPGKERELVAAITRTATTKYADSVKGRFTISRDNAKNTVYLQMNSLKPEDSAVYYCAARSYHDRYNSWTDRYGFWGQGTQVTVSS", "polyreactivity (PSR sort gate)": "high polyreactivity"}
{"sequence": "QVQLVESGGGLVQAGGSLRLSCAASGLIFSPYAMGWYRQAPGKERELVAAISWRGGRTSYADSVKGRFTISRDNAKNTVYLQMNSLKPEDTAVYYCATRNSSKRRGYYYWGQGTQVTVSS", "polyreactivity (PSR sort gate)": "high polyreactivity"}
{"sequence": "QVQLVESGGGLVQAGGSLRLSCAASGLIFSRNAMGWYRQAPGKERELVAAISGGGGSTYYADSVKGRFTISRDNAKNNVYLQMHSLKQEATAVYDCAAKGYWWRTPWIATYDYWGQGTQVTVSS", "polyreactivity (PSR sort gate)": "high polyreactivity"}
{"sequence": "QVQLVESGGGLVQAGGSLRLSCAASGLIFSRYAMGWYRQAPGKERELVAAISTRGGSTYYADSVKGRFTISRDTAKNTVYLQMNSLKPEDTAVYYCNADIYGTFRVGQGYDYWGQGTQVTVSS", "polyreactivity (PSR sort gate)": "high polyreactivity"}
{"sequence": "QVQLVESGGGLVQAGGSLRLSCAASGLIFSRYAMGWYRQAPGKERELVAVISWSGGRTYYSDSVKGRFTISRDNAKNTVYLQMNSLQPEDTAVYYCAADYKSGGSRYDYWGQGTQVTVSS", "polyreactivity (PSR sort gate)": "high polyreactivity"}
{"sequence": "QVQLVESGGGLVQAGGSLRLSCAASGLIFSSNAMGWYRQAPGKERELVAAISRRGGNTYYADSVKGRFTISRDNAKNTVYLQMNSLKPEDTAVYYCAARRYYVASIYRYDSWGQGTQVTVSS", "polyreactivity (PSR sort gate)": "high polyreactivity"}
{"sequence": "QVQLVESGGGLVQAGGSLRLSCAASGLIFSSNAMGWYRQAPGKERELVATISWSGGSTYYADSVKGRFTISRDNAKNTVYLQMNSLKPEDTAVYYCAAVTHPAWAVEYDYWGQGTQVTVSS", "polyreactivity (PSR sort gate)": "high polyreactivity"}
{"sequence": "QVQLVESGGGLVQAGGSLRLSCAASGLIFSVNAMGWYRQAPGKERELVAAITWSSGRTYYADSVKGRFTISRDNAKNSVYLQMISLKPEDTAVYYCAGVSYWYGLMYYWGQGTQVTVSS", "polyreactivity (PSR sort gate)": "high polyreactivity"}
{"sequence": "QVQLVESGGGLVQAGGSLRLSCAASGLIFSYNAMGWYRQAPGTEMELVASITGGGSTYYADSVKGRFTISRDNAKNTVYFQIKSQKPEDTAVYYCAVVRLWYAQPAAGFRAGGGYWGQGTQVTLSS", "polyreactivity (PSR sort gate)": "low polyreactivity"}
{"sequence": "QVQLVESGGGLVQAGGSLRLSCAASGLIFSYYAMGWYRQAPGKEMELVAAITSDDSTYYADSVKGRFTISRDNAKNTVYLQINSLKPEDTAVYYCAARYTMYDTGESSRTYTGFNYWGQGTQVTVSS", "polyreactivity (PSR sort gate)": "low polyreactivity"}
{"sequence": "QVQLVESGGGLVQAGGSLRLSCAASGLIFSYYAMGWYRQAPGKERELVAAISWSGGSTYYADSVKGRFTISRDNAKNTVYLQMNSLKPEDTAVYYCAADRISADYDYWGQGTQVTVSS", "polyreactivity (PSR sort gate)": "low polyreactivity"}
{"sequence": "QVQLVESGGGLVQAGGSLRLSCAASGLIFTTNAMGWYRQAPGKERELVAAISTSTGRTYYADSVKGRFTISRDNAKNTVYLQMNSLKPEDTAVYYCARGSRYVGTQRHYYKYDYWGQGTQVTVSS", "polyreactivity (PSR sort gate)": "high polyreactivity"}
{"sequence": "QVQLVESGGGLVQAGGSLRLSCAASGLIFVANTMGWYRQATGKERELVAAITSDGGSTSYADSVKGRFTISRDNAKNTVYLQMNSLKPEDTAVYHCAAEYGGSSAKYGYWGQGTQVTVSS", "polyreactivity (PSR sort gate)": "low polyreactivity"}
{"sequence": "QVQLVESGGGLVQAGGSLRLSCAASGLIFVGYAMGWYRQAPGKERELVAAITSGGSTKYADSVKGRFTISRDNAKNTVYLQMNSLKPEDTAVYYCAASGWRNWWSARNYYWGQGTQVTVSS", "polyreactivity (PSR sort gate)": "low polyreactivity"}
{"sequence": "QVQLVESGGGLVQAGGSLRLSCAASGLIFVGYVMGWYRQAPGKERELVAAITSSSGSTYYADSVKGRFTISRDNAKNTVYLQKNSLKPEDTAVYYCAAEWGYYWYYDSEYWGQGTQVTVSS", "polyreactivity (PSR sort gate)": "high polyreactivity"}
{"sequence": "QVQLVESGGGLVQAGGSLRLSCAASGLIFVINAMGWYRQAPGKERELVATISSGVSTNYADSVKGRFTISRDNAKNTVYLQMNSLKPEDTAVYYCKKGQTVSRGYRLYERYDYWGQGTQVTVSS", "polyreactivity (PSR sort gate)": "low polyreactivity"}
{"sequence": "QVQLVESGGGLVQAGGSLRLSCAASGLIFWGYTMGWYRQAPGKEREFVAAISKSAGSTFYADSVKGRFTISRDNAKNTVYLQMNSLKPEDTAVYYCATGGFPGARVAYDYYYWGQGTQVTVSS", "polyreactivity (PSR sort gate)": "low polyreactivity"}
{"sequence": "QVQLVESGGGLVQAGGSLRLSCAASGLIFWGYTMGWYRQAPGKERELVAAISRRGGRTYYADSVKGRFTISRDNAKNTVYLQMNSLKPEDTAVYYCNADITSSGPKSDYWGQGTQVTVSS", "polyreactivity (PSR sort gate)": "high polyreactivity"}
{"sequence": "QVQLVESGGGLVQAGGSLRLSCAASGLIFWLNAMGWYRQAPGKERELVAAISWTDGTTYYADSVKGRFTISRDNAKNTVYLQMNSLIPEDTAVYYCAAEQVTIEDGVYFDFNSWGQGTQVTVSS", "polyreactivity (PSR sort gate)": "low polyreactivity"}
{"sequence": "QVQLVESGGGLVQAGGSLRLSCAASGLIFWVYTMGWYRQAPGKERELVASISWNGGSTYYADSVKGRFTISRDNAKNTVYLQMNSLKPEDTAVYYCAAGARYVQRDYWGQGTQVTVSS", "polyreactivity (PSR sort gate)": "low polyreactivity"}
{"sequence": "QVQLVESGGGLVQAGGSLRLSCAASGLIFWYYTMGWYRPAPGKERELVAAITIGGSTYYADSVKGRFTISRDNAKNTVYLQMNSLKPEDTAVYYCNTRRGRSQGGRYEYDYWGQGTQVTVSS", "polyreactivity (PSR sort gate)": "low polyreactivity"}
{"sequence": "QVQLVESGGGLVQAGGSLRLSCAASGLIFYDNAMGWYRQAPGKERELVAAISWGGGTTYYADSVKGRFTISRDNAKNTVYLQMISLKPDDTAVYYCAAEEALFYDFYYVLLDYWGQGTQVTVSS", "polyreactivity (PSR sort gate)": "high polyreactivity"}
